Test results published in patent US20240059769A1 (BIOLOJIC DESIGN, published 2024).

B1: BDG38.075 (antibody, V domains shown)
VH: QMQLVESGGGVVQPGRSLRLSCAASGFAFRTYGMHWVRQAPGKGLEWVAVIWYDGSATHYADSVKGRFTITRDNSKNTLNLQMNSLRAEDTAVYYCVRAPQWYLSAEAFDLWGQGTMVTVSS
VL: SYVLTQPPSVSVAPGETATITCGGNLIGAYLVHWYQQKPGQAPVLVIYDDVDRPARIPERFSGSNSGNTATLTISRVEAGDEADYYCQVWDHDTNTMVFGGGTKLTVL
notes: IgG1
B2: Ab clone 38.040 (yeast surface display) (scFv, V domains shown)
VH: QMQLVESGGGVVQPGRSLRLSCAASGFDFRTYGMHWVRQAPGKGLEWVAVIWYDGSITHYADSVKGRFTITRDNSKNTLNLQMNSLRAEDTAVYYCVRAPQWYLTAEAFDLWGQGTMVTVSS
VL: SYVLTQPPSVSVAPGQTARITCGGNLIGTKLVHWYQQKPGQAPVLVVYDDSDRPSRIPERFSGSNSGNTATLTISRVEAGDEADYYCQVWDHNEDEVVFGGGTKLTVL
notes: YSD clone; also called BDG38_040
B3: Ab clone 38.021 (yeast surface display) (scFv, V domains shown)
VH: QMQLVESGGGVVQPGRSLRLSCAASGFAFDTYGMHWVRQAPGKGLEWVAVIWYDGSNTVYADSVKGRFTITRDNSKNTLNLQMNSLRAEDTAVYYCARAPQWYLSAEAFDLWGQGTMVTVSS
VL: SYVLTQPPSVSVAPGQTARITCGGNLIGSKLVHWYQQKPGQAPVLVVYDDSDRPSRIPERFSGSNSGNTATLTISRVEAGDEADYYCQVWDHSSDHYVFGGGTKLTVL
notes: YSD clone; also called BDG38_021
B4: BDG38.080 (antibody, V domains shown)
VH: QMQLVESGGGVVQPGRSLRLSCAASGFAFRTYGMHWVRQAPGKGLEWVAVIWYDGSATHYADSVKGRFTITRDNSKNTLNLQMNSLRAEDTAVYYCVRAPQWYLSAEAFDLWGQGTMVTVSS
VL: SYVLTQPPSVSVAPGETATITCGGNLIGAYLVHWYQQKPGQAPVLVIYDDSDRPDRIPERFSGSNSGNTATLTISRVEAGDEADYYCQVWDHNTNHMVFGGGTKLTVL
notes: IgG1
B5: BDG38.078 (antibody, V domains shown)
VH: QMQLVESGGGVVQPGRSLRLSCAASGFEFRTYGMHWVRQAPGKGLEWLGVIWYDGSNTHYADSVKGRFTITRDNSKNTLNLQMNSLRVEDTAVYYCVRAPQWYLTAEAFDLWGQGTMVTVSS
VL: SYILTQPPSVSVAPGETATITCGGNLIGARLVHWYQQKPGQAPVLVIYDDSDRPSRIPERFSGSNIGNTATLTIERVEAGDEADYYCQVWDYYSDHMVFGGGTKLTVL
notes: IgG1
B6: BDG38.077 (antibody, V domains shown)
VH: QMQLVESGGGVVQPGRSLTLSCAASGFAFRTYGMHWVRQAPGKGLEWVGVIWYDGSATHYADSVKGRFTITRDNSKNTLNLQMNSLRAEDTAVYYCVRAPQWYLTAEAFDLWGQGTMVTVSS
VL: SYVLTQPPSVSVAPGETATITCGGALIGSRLVHWYQQKPGQAPVLVIYDDSDRPSRIPERFSGSNIGNTATLTISDVEAGDEADYYCQVWDHSSNTYVFGGGTKLTVL
notes: IgG1
B7: Tralokinumab (antibody, V domains shown)
VH: QVQLVQSGAEVKKPGASVKVSCKASGYTFTNYGLSWVRQAPGQGLEWMGWISANNGDTNYGQEFQGRVTMTTDTSTSTAYMELRSLRSDDTAVYYCARDSSSSWARWFFDLWGRGTLVTVSS
VL: SYVLTQPPSVSVAPGKTARITCGGNIIGSKLVHWYQQKPGQAPVLVIYDDGDRPSGIPERFSGSNSGNTATLTISRVEAGDEADYYCQVWDTGSDPVVFGGGTKLTVL
B8: Lebrikizumab (antibody, V domains shown)
VH: QVTLRESGPALVKPTQTLTLTCTVSGFSLSAYSVNWIRQPPGKALEWLAMIWGDGKIVYNSALKSRLTISKDTSKNQVVLTMTNMDPVDTATYYCAGDGYYPYAMDNWGQGSLVTVSS
VL: DIVMTQSPDSLSVSLGERATINCRASKSVDSYGNSFMHWYQQKPGQPPKLLIYLASNLESGVPDRFSGSGSGTDFTLTISSLQAEDVAVYYCQQNNEDPRTFGGGTKVEIKR
B9: Clone C9 (yeast-displayed scFv) (scFv)
scFv: QMQLVESGGGVVQPGRSLRLSCAASGFTFRTYGMHWVRQAPGKGLEWVAVIWYDGSNKHYADSVKGRFTITRDNSKNTLNLQMNSLRAEDTAVYYCARSPQWEWVHEAFDLWGQGTMVTVSSGGGGSGGGGSGGGGSSYVLTQPPSVSVAPGQTARITCGGNLIGSKLVHWYQQKPGQAPVLVVYDDGDRPSWIPERFSGSNSGNTATLTISRVEAGDEADYYCQVWDSSSDGVVFGGGTKLTVL
B10: Clone C40 (yeast-displayed scFv) (scFv)
scFv: QMQLVESGGGVVQPGRSLRLSCAASGFTFRTYGMHWVRQAPGKGLEWVAVIWYDGSNKHYADSVKGRFTITRDNSKNTLNLQMNSLRAEDTAVYYCARSPQWEWVHEAFDLWGQGTMVTVSSGGGGSGGGGSGGGGSSYVLTQPPSVSVAPGQTARITCGGNNIGSKLVHWYQQKPGQAPVLVVYDDSDRPSRIPERFSGSNSGNTATLTISRVEAGDEADYYCQVWDTSSDGVVFGGGTKLTVL
B11: Clone C6 (yeast-displayed scFv) (scFv)
scFv: QMQLVESGGGVVQPGRSLRLSCAASGFTFRTYGMHWVRQAPGKGLEWVAVIWYDGSNKHYADSVKGRFTITRDNSKNTLNLQMNSLRAEDTAVYYCARAPQWMLVAEAFDLWGQGTMVTVSSGGGGSGGGGSGGGGSSYVLTQPPSVSVAPGQTARITCGGNLIGSKLVHWYQQKPGQAPVLVVYDDSDRPSRIPERFSGSNSGNTATLTISRVEAGDEADYYCQVWDSSSDHVVFGGGTKLTVL
B12: Clone C2 (yeast-displayed scFv) (scFv)
scFv: QMQLVESGGGVVQPGRSLRLSCAASGFTFRTYGMHWVRQAPGKGLEWVAVIWYDGSNKHYADSVKGRFTITRDNSKNTLNLQMNSLRAEDTAVYYCARAPQWELTAEAFDIWGQGTMVTVSSGGGGSGGGGSGGGGSSYVLTQPPSVSVAPGQTARITCGGNLIGSKLVHWYQQKPGQAPVLVVYDDSDRPSLIPERFSGSNSGNTATLTISRVEAGDEADYYCQVWDSSSDGVVFGGGTKLTVL

Legend:
[1] = biological target: T1, recombinant human IL-13 (human, UniProt P35225 35-146); test: cell-based or functional assay
[2] = biological target: T2, human TSLP (human, UniProt Q969D9 29-159); test: cell-based or functional assay
[3] = biological target: T3, hTSLP-His (human, UniProt Q969D9 29-159, limits assumed); test: competition ELISA: antibody titrated and pre-incubated with 7 nM TSLP-His, then on a plate coated with 33.001 (Tezepelumab), anti-His detection; row head on the sheet reads EC50, unit from the axis
T3 construct: bought; also called hTSLP (ACROBiosystems TSP-H52Hb); not shown: His tag

[4] = biological target: T4, cynomolgus monkey (cyno) TSLP (cynomolgus monkey, UniProt A0A7N9CAT7 29-159); test: SPR
T4 construct: also called cTSLP; cynomolgus TSLP

[5] = biological target: T1, recombinant human IL-13; test: SPR
[6] = biological target: T2, human TSLP; test: SPR
[7] = biological target: T5, recombinant cynomolgus monkey IL-13 (cynomolgus monkey, UniProt Q0PW92 21-132); test: SPR
T5 construct: bought; also called rc-IL-13; cIL-13

[8] = biological target: T3, hTSLP-His; test: competition ELISA, 7 nM TSLP-His pre-incubated with antibody; competitor Tezepelumab coated
[9] = biological target: T3, hTSLP-His; test: cell-based or functional assay
[10] = biological target: T1, recombinant human IL-13; test: cell-based or functional assay; remark: listed apart in the source
[11] = biological target: T2, human TSLP; test: yeast surface display, affinity maturation library
[12] = biological target: T3, hTSLP-His; test: competition ELISA: antibody titrated and pre-incubated with 7 nM TSLP-His, then on a plate coated with 33.001 (Tezepelumab), anti-His detection; row head on the sheet reads EC50, unit from the axis; remark: listed apart in the source
[13] = biological target: hIL-13-His (human, UniProt P35225 35-146, limits assumed); test: cell-based or functional assay
[14] = biological target: T6, recombinant human IL-13 (rh-IL-13)-Fc (human, UniProt P35225 35-146, limits assumed); test: yeast surface display scFv, flow cytometry, 10 nM rh-IL-13-Fc
T6 construct: bought; not shown: human Fc

[15] = biological target: T7, recombinant human TSLP (hTSLP)-Fc (human, UniProt Q969D9 29-159, limits assumed); test: yeast surface display, flow cytometry, 10 nM hTSLP-Fc; MFI normalized to expression and to the positive control
T7 construct: not shown: Fc

T5 sequence (Q0PW92 entry or part of it): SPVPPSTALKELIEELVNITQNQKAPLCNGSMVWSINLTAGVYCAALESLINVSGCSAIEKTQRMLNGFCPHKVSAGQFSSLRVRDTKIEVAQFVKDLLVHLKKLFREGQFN
T1 sequence (P35225 35-146 limits assumed): as the sequence (Q0PW92 entry or part of it) above, with S1G, K10R, V42M, N67S, R83H, V100L counted along it
T6 sequence (P35225 35-146 limits assumed): as the sequence (Q0PW92 entry or part of it) above, with S1G, K10R, V42M, N67S, R83H, V100L counted along it
T4 sequence (A0A7N9CAT7 entry or part of it): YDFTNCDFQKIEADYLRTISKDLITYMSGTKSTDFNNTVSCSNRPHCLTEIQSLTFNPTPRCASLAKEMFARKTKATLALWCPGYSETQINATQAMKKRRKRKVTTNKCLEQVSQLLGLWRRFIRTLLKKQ
Chain of hIL-13-His (P35225 35-146 limits assumed): as the sequence (Q0PW92 entry or part of it) above, with S1G, K10R, V42M, N67S, R83H, V100L counted along it

Binder | IC50 CD23 [1] | IC50 TARC [2] | Kd [5] | koff [5] | kon [5] | Kd [6] | koff [6] | kon [6] | IC50 [8] | IC50 [pM], STAT5 phosphorylation inhibition in MUTZ5 cells [9] | HEK-IL-13 [nM] (IC50, STAT6 reporter) [10] | relative affinity (normalized MFI, % of positive control) [14] | binding result [15] | also measured
B1 | 0.0975 nM | 4.17 nM | 0.0318 nM | 0.000547 s⁻¹ | 1.72e+07 M⁻¹ s⁻¹ | 0.012 nM | 2.38e-05 s⁻¹ | 1.98e+06 M⁻¹ s⁻¹ | 3.94 nM | 43.9 pM | 0.0691 nM | – | – | IC50 [3]: 3.39 nM; Kd [4]: 0.00279 nM; koff [4]: 7.59e-06 s⁻¹; kon [4]: 2.72e+06 M⁻¹ s⁻¹; Kd [7]: 0.454 nM; koff [7]: 0.0156 s⁻¹; kon [7]: 3.45e+07 M⁻¹ s⁻¹
B2 | – | – | – | – | – | – | – | – | – | – | – | – | – | binding result [11]: binds
B3 | – | – | – | – | – | – | – | – | – | – | – | – | – | binding result [11]: binds
B4 | 0.201 nM | 0.79 nM | 0.0716 nM | 0.00114 s⁻¹ | 1.59e+07 M⁻¹ s⁻¹ | 0.00722 nM | 1.81e-05 s⁻¹ | 2.5e+06 M⁻¹ s⁻¹ | 3.27 nM | 34.3 pM | 0.0592 nM | – | – | IC50 [12]: 3.27 nM
B5 | 0.125 nM | 6.52 nM | 0.0857 nM | 0.000203 s⁻¹ | 2.37e+06 M⁻¹ s⁻¹ | 0.000231 nM | 2.95e-07 s⁻¹ | 1.28e+06 M⁻¹ s⁻¹ | 4.3 nM | 338 pM | 0.0508 nM | – | – | IC50 [12]: 4.3 nM
B6 | 0.0124 nM | 2.47 nM | 0.0325 nM | 0.000539 s⁻¹ | 1.66e+07 M⁻¹ s⁻¹ | 0.166 nM | 0.000144 s⁻¹ | 869000 M⁻¹ s⁻¹ | 8.47 nM | 304 pM | 0.0505 nM | – | – | IC50 [3]: 8.48 nM
B7 | – | – | – | – | – | – | – | – | – | – | – | – | – | IC50, CD23 expression on monocytes (hPBMC, 0.7 nM IL-13) [13]: 0.91 nM
B8 | – | – | – | – | – | – | – | – | – | – | – | – | – | IC50, CD23 expression on monocytes (hPBMC, 0.7 nM IL-13) [13]: 0.38 nM
B9 | – | – | – | – | – | – | – | – | – | – | – | > 20% | binds | –
B10 | – | – | – | – | – | – | – | – | – | – | – | > 20% | binds | –
B11 | – | – | – | – | – | – | – | – | – | – | – | > 20% | binds | –
B12 | – | – | – | – | – | – | – | – | – | – | – | > 20% | binds | –
